Numbering of substitutions follows the chain as printed.

In experiment [1] the target is T1, human C16orf54 (human, UniProt Q6UWD8 1-224).
T1 construct: also called huC16orf54; hC16orf54
T1 sequence: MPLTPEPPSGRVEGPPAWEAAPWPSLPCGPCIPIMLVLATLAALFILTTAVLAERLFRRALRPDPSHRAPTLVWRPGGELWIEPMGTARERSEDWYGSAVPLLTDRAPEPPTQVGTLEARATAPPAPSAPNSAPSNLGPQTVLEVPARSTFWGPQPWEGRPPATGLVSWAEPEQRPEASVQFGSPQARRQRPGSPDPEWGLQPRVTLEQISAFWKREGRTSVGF
The experiment is described as follows: cell-based or functional assay.

Experiment [2] deals with T2, cynomolgus monkey C16orf54 (cynomolgus monkey (Macaca fascicularis), UniProt Q6UWD8 1-224 (human entry)).
T2 construct: also called cyno C16orf54; cyno-C16orf54
T2 chain: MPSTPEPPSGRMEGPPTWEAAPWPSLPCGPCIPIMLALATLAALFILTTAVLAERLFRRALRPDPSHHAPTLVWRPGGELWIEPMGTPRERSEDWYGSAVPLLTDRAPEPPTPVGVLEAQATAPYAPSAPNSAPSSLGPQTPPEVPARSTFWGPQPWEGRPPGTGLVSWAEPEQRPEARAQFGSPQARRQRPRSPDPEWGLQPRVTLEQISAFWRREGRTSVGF
The experiment in a line: flow cytometry, 10 ug/ml antibody, F279-cyno-C16orf54 cells. How it is done: (§1) Anti-C16orf54 antibodies which bound to human C16orf54 were tested for their reactivity with human C16orf54 and their crossreactivity with C16orf54 from cynomolgous monkeys (cyno C16orf54) using flow cytometry. Sarcoma cells transfected with and expressing human C16orf54 or cyno C16orf54 were washed with PBS with 0.1% BSA, incubated with FcX receptor blocking solution (BioLegend) for 15 minutes, incubated with 10 μg/ml of anti-C16orf54 antibody for 1 hour at 4° C., washed twice with PBS with 0.1% BSA, incubated with 20 μg/ml of R-Phycoerythrin-AffiniPure F(ab′)2 Fragment Goat Anti-Mouse IgG, Fcγ Fragment Specific (Jackson ImmunoResearch) for 30 minutes at 4° C., washed twice with PBS with 0.1% BSA, incubated with the viability dye TO-PRO-3 iodide (Life Technologies), and immediately analyzed on a MACSQuant Analyzer instrument (Miltenyi). For each cell line and anti-C16orf54 antibody, a fold change was derived by dividing the median fluorescence intensity for Phycoerythrin in the live cell population for the anti-C16orf54 antibody by the median fluorescence intensity for Phycoerythrin in the live cell population for the IgG isotype control antibody. A number of anti-C16orf54 antibodies (see, e.g., R29-8-57B, R29-8-136C, R29-7-1C, R29-67-7A, R29-67-4A, and R29-7-2A) bind human C16orf54 and also bind (e.g., are crossreactive with) cyno C16orf54.

Experiment [3] has as its target T3, Human C16-ECD peptide (aa1-31) (human).
T3 construct: Coated on plates in the peptide ELISA; also called human extracellular domain peptide
T3 peptide: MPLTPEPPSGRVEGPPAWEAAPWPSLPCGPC
The experiment is described as follows: column head 'Full kinetics (nM)' in the table of the C16orf54 peptide binding assays; method and antigen not described; 3 runs.

Experiment [4] addresses T1, human C16orf54. The experiment is described as follows: flow cytometry titration, KG1 cells (endogenous human C16orf54).
Experiment [5] deals with T4, human C16orf54 ECD fragment aa9-24 (human).
T4 peptide: SGRVEGPPAWEAAPWP
The experiment is described as follows: peptide ELISA, 2 ug/ml peptide coated, 10 ug/ml antibody. How it is done: (§2) Anti-C16orf54 antibodies which bind to human C16orf54, including antibodies that are crossreactive with cyno C16orf54, were tested for their binding to various peptides derived from C16orf54 in a peptide ELISA. A 384-well high binding black microplate (Greiner) was incubated with 2 μg/ml of protein (human, cyno, or mouse extracellular domain peptides) for 16 hours, incubated for 1 hr with a blocking buffer (PBS with 5% Fetal Bovine Serum), washed four times with TBS with Tween, incubated for 1 hour with 10 μg/ml of anti-C16orf54 antibody, washed four times with TBS with Tween, incubated for 1 hour with 10 μg/ml of Peroxidase-AffiniPure Goat Anti-Mouse IgG, Fcγ Fragment Specific (Jackson ImmunoResearch), washed four times with TBS with Tween, and peroxidase was detected with a luminometer (Molecular Devices) upon addition of SuperSignal® ELISA Pico Chemiluminescent Substrate (Thermo Scientific). The luminescence signal was determined.

Experiment [6] addresses T5, human C16orf54 ECD fragment aa1-15 (human).
T5 peptide: MPLTPEPPSGRVEGP
The experiment is described as above. How it is done:
as §2

Experiment [7] has as its target T1, human C16orf54. The experiment in a line: flow cytometry, 10 ug/ml antibody, D42M1-huC16orf54 cells. How it is done:
as §1

The target of experiment [8] is T2, cynomolgus monkey C16orf54. The experiment is described as follows: flow cytometry titration, F279-cyno-C16orf54 cells. How it is done:
Anti-C16orf54 antibodies which bound to human C16orf54 were tested for their binding to cells expressing human C16orf54 and cells expressing cyno C16orf54. […] Median fluorescence intensities for each primary antibody concentration were used to derive a flow EC50/Kd using the one site-specific binding with Hill slope model in Prism (GraphPad Prism® Software). Results are shown as flow EC50 in Table 35.

Experiment [9] deals with T6, extracellular domain of c16orf54 (amino acids 1-31) fused to human IgG1 Fc (Homo sapiens, UniProt Q6UWD8).
T6 construct: the extracellular domain of c16orf54 (amino acids 1-31) either N terminal or C-terminal to a human IgG1 Fc domain; made in house; host or cells: 293 T cells, transient; Protein A purification
T6 sequence (Q6UWD8 1-31 limits assumed): T3 peptide
The experiment is described as follows: C16orf54 peptide-Fc fusion protein ELISA. In kind it is binding. The settings on record: serial dilution of antibody; HRP-conjugated anti mouse secondary. How it is done:
Anti-C16orf54 antibodies which bind to human C16orf54, including antibodies that are crossreactive with cyno C16orf54, were tested for their binding to various peptides derived from C16orf54 that were fused to human IgG (e.g., IgG1) constant regions to generate various peptide-Fc fusion proteins in an Fc-based ELISA. An exemplary Fc sequence comprises an IgG1 Hinge region sequence and IgG1 CH3 and […] domain sequences.
The fusion proteins were transiently expressed in 293 T cells. Protein was purified from the 293 expression supernatants by Protein A-based affinity purification. Exemplary C16 peptide-Fc fusion constructs that were made and purified are shown with their protein yield in Table 38. ELISA assays were performed by coating 384 well plates with the fusion proteins overnight at 4C. Antibodies were analyzed by serial dilution with concentrations ranging from 40 ug/mL to […]. Binding was detected with an HRP-conjugated anti mouse secondary antibody.

The next experiment has as its system C16orf54 ECD peptides. The experiment in a line: Peptide crossblocking (Table 36). It counts as binding.
The target of experiment [10] is T7, human C16orf54 (Homo sapiens, UniProt Q6UWD8).
T7 construct: expressed in transfected cells; host or cells: murine sarcoma cells (D42M1-huC16orf54)
T7 sequence (Q6UWD8 1-224): T1 sequence
The experiment in a line: Flow cytometry reactivity with sarcoma cells expressing human C16orf54 (fold change over isotype). In kind it is binding. The settings on record: for binding to human C16orf54 (flow cytometry): sarcoma cells expressing human C16orf54, 10 μg/ml antibody. How it is done:
as §1, with “antibody.” for “antibody. A number of anti-C16orf54 antibodies (see, e.g., R29-8-57B, R29-8-136C, R29-7-1C, R29-67-7A, R29-67-4A, and R29-7-2A) bind human C16orf54 and also bind (e.g., are crossreactive with) cyno C16orf54.”

The subject of experiment [11] is human C16orf54 extracellular domain peptides. The experiment is described as follows: C16orf54 peptide ELISA, human extracellular domain peptides. In kind it is binding. The conditions noted are these: human, cyno, or mouse extracellular domain peptides, not told apart; 10 μg/ml antibody. How it is done: as §2

B1: R29-8-57B mcMMAF (protein)
VH: DVQLQESGPGLVKPSQSLSLTCTVTGYSITSDYAWNWIRQFPGNKLEWMGYINYSGSTRYNPSLKSRISITRDTSKNHFFLQLNSVTPEDTATYHCARERYDGVYYGMDYWGQGTSVTVSS
VL: DIVMSQSPSSLAVSVGEKVTMSCKSSQSLLYSSNQKNYLAWYQQKPGQSPKLLIYWASTRESGVPDRFTGSGSGTDFTLTISSVKTEDLAVYYCQQYYSYRTFGGGTKLEIK
modifications: maleimidocaproyl-monomethylauristatin F (MC-MMAF) on reduced cysteine thiols of the antibody; positions not given
In the experiment with human C16orf54 [1], B1 came in with an IC50 nM, cell viability, C16orf54 expressing sarcoma line 2, 72 hours of 0.1 nM and an IC50 (nM), cell viability, C16orf54 expressing Sarcoma line 1, 72 hours of 0.2 nM.

B2: R29-8-57B (antibody, V domains shown)
VH: B1 VH
VL: B1 VL
notes: Murine monoclonal antibody from a hybridoma
As to B2, the figures for the “Median fold change relative to IgG control” value (in experiment [2]; in the experiment with human C16orf54 [7]) were 62 fold and 204 fold, respectively. The molecule also had a dissociation constant Kd in [3] of 0.6 nM. Also, the EC50 with human C16orf54 [4] was 0.1 nM; in experiment [8] it was 2.5 nM. Also, the binding result in experiment [5] and in experiment [6] was “binds” throughout.

B3: R29-8-136C (antibody, V domains shown)
VH: B1 VH with T58S
VL: B1 VL
notes: as for B2
For the molecule B3, the entries for the “Median fold change relative to IgG control” value (in experiment [2]; with human C16orf54 [7]) were 61.6 fold and 202 fold, respectively. The molecule also registered a dissociation constant Kd in experiment [3] of 0.64 nM. For the same molecule, the EC50 with human C16orf54 [4] was 0.2 nM; in experiment [8] it was 2.5 nM. Besides, the binding result in experiment [5] and in [6] was “binds” in each case.

B4: R29-8-57B: murine anti-C16orf54 monoclonal antibody; VH SEQ ID NO: 20, VL SEQ ID NO: 22 (antibody, V domains shown)
VH: MRVLILLWLFTAFPGILSDVQLQESGPGLVKPSQSLSLTCTVTGYSITSDYAWNWIRQFPGNKLEWMGYINYSGSTRYNPSLKSRISITRDTSKNHFFLQLNSVTPEDTATYHCARERYDGVYYGMDYWGQGTSVTVSS
VL: MDSQAQVLMSLLLWVSGTCGDIVMSQSPSSLAVSVGEKVTMSCKSSQSLLYSSNQKNYLAWYQQKPGQSPKLLIYWASTRESGVPDRFTGSGSGTDFTLTISSVKTEDLAVYYCQQYYSYRTFGGGTKLEIK
modifications: R29-8-57B heavy chain variable region; R29-8-57B light chain variable region
With B4, the “binding to peptide-Fc fusion proteins (Fc-based ELISA)” value in [9] was “able to bind to the peptide-Fc fusion proteins”. The Peptide crossblocking entry in the experiment with C16orf54 ECD peptides is recorded as “aa1-31, aa1-15”. For the same molecule, in the experiment with human C16orf54 [10], the “binding to C16orf54-expressing cells (dual binders)” value is reported as “bind to C16orf54-expressing cells” and the “binding to human C16orf54 (flow cytometry)” value is reported as “bind human C16orf54”. In addition, the “binding to peptides derived from the extracellular domain of C16orf54 (peptide ELISA)” value in [11] is “bind to the various peptides derived from the extracellular domain (ECD) of C16orf54”.

B5: R29-8-136C: murine anti-C16orf54 monoclonal antibody; VH SEQ ID NO: 16, VL SEQ ID NO: 18 (antibody, V domains shown)
VH: B4 VH with T76S
VL: B4 VL
modifications: R29-8-136C heavy chain variable region; R29-8-136C light chain variable region
For B5, the Peptide crossblocking result in the experiment with C16orf54 ECD peptides is “aa1-31, aa1-15”. Moreover, in the experiment with human C16orf54 [10], the “binding to C16orf54-expressing cells (dual binders)” value is “bind to C16orf54-expressing cells” and the “binding to human C16orf54 (flow cytometry)” value is given as “bind human C16orf54”. Besides, in experiment [11], the “binding to peptides derived from the extracellular domain of C16orf54 (peptide ELISA)” value was “bind to the various peptides derived from the extracellular domain (ECD) of C16orf54”.

Source of the values: patent US20150231240A1, “ANTI-C16ORF54 ANTIBODIES AND METHODS OF USE THEREOF” (priority 2012, published 2015).
